The values that follow come from the supplement of paper PMC10201428.

Data set [1] has as its system VchCAST RNA-guided transposition machinery (E. coli BL21(DE3) host, lacZ target). Kind of data set: relative integration efficiency (T-LR orientation) vs wild-type transposon end (log2 (normalized fold change)); transposon end mutated: right end (5 bp flank + 75 bp right end); higher = more efficient transposition. In outline:
(§1)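 A T7-driven effector plasmid encoding a CRISPR array, tniQ-cas8-cas7-cas6 and tnsA-tnsB-tnsC was co-transformed into E. coli BL21(DE3) together with a pUC57 mini-transposon donor holding barcoded pools of 1549 left-end or 1849 right-end variants. Transformants were plated with 0.1 mM IPTG at 37°C for 18 h. Illumina sequencing of PCR-amplified input plasmids and genomic integration junctions gave barcode abundances, and relative integration efficiency is their output/input fold change, normalised to reference barcodes and log-transformed.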

For data set [2] the test system is unchanged. Briefly: relative integration efficiency (T-RL orientation) vs wild-type transposon end (log2 (normalized fold change)); transposon end mutated: right end (5 bp flank + 75 bp right end); higher = more efficient transposition. In outline: as §1

± gives the standard deviation of the averaged measurements.

Turning to “ACATTTGTTGATACAACCATAACCTGATAATTACACCCATAAATTGATAATTATCACACCCATAAATTGATATTGCCTCTGATCATAGTCAGACCAACATTGCTACGACCCGTATTCGCACCGACAC”, the “relative integration efficiency (log2)” value was -0.337 ± 0.089 in data set [1] and -0.321 ± 0.01 in data set [2].
The corresponding values for “ACATTTGTTGATACAACCATAACCTGATAATTACACCCATAACGTGATAATTATCACACCCATAACGTGATATTGCCTCTGATCATAGTCAGACCAACATTGCTACGACCCGTATTCGCACCGACAC” are -0.339 ± 0.3 and -0.513 ± 0.02.
The corresponding values for “ACATTTGTTGATACAACCATAAGTTGATATTTTCAACCATAAAATGATAATTATCACAACCATAAAATGATAATTACTCTGATCATAGTCAGACCAACATTGCTACGACCCGTATTCGCACCGACAC” are -0.774 ± 0.049 and -0.00738 ± 0.052.
Taken in the same sequence, the figures for “ACATTTGTTGATACAACCATAAGTTGATATTTTCAACCATAAAATGATAATTATCACAACCATAAAGTGATATTTACTCTGATCATAGTCAGACCAACATTGCTACGACCCGTATTCGCACCGACAC” were -0.26 ± 0.094 and 0.0134 ± 0.036.
For the sequence “ACATTTGTTGATACAACCATAAGTTGATATTTTCAACCATAAAATGATAATTATCACAACCATAAGTTGATATTTTCTCTGATCATAGTCAGACCAACATTGCTACGACCCGTATTCGCACCGACAC”, the “relative integration efficiency (log2)” value was -0.119 ± 0.45 in data set [1] and -0.233 ± 0.067 in data set [2].
The corresponding values for “ACATTTGTTGATACAACCATAAGTTGATATTTTCAACCATAAAATGATAATTATCACAACCATATATTGATATCTCCTCTGATCATAGTCAGACCAACATTGCTACGACCCGTATTCGCACCGACAC” are 0.0384 ± 0.016 and -0.078 ± 0.041.
Taken in the same sequence, the figures for “ACATTTGTTGATACAACCATAAGTTGATATTTTCAACCATAAAATGATAATTATCACACCCATAAATTGATAATTACTCTGATCATAGTCAGACCAACATTGCTACGACCCGTATTCGCACCGACAC” were -0.376 ± 0.15 and -0.162 ± 0.0022.
Taken in the same sequence, the figures for “ACATTTGTTGATACAACCATAAGTTGATATTTTCAACCATAAAATGATAATTATCACACCCATAAATTGATATTGCCTCTGATCATAGTCAGACCAACATTGCTACGACCCGTATTCGCACCGACAC” were 0.105 ± 0.58 and 0.367 ± 0.094.
For “ACATTTGTTGATACAACCATAAGTTGATATTTTCAACCATAAAATGATAATTATCAGTGGGTATTTAACTATAACGCTCTGATCATAGTCAGACCAACATTGCTACGACCCGTATTCGCACCGACAC”, the “relative integration efficiency (log2)” value is 2.48 ± 0.2 in data set [1] and -0.962 ± 0.12 in data set [2].
Regarding “ACATTTGTTGATACAACCATAAGTTGATATTTTCAACCATAAAGTGATATTTATCACAACCATAAAATGATAATTACTCTGATCATAGTCAGACCAACATTGCTACGACCCGTATTCGCACCGACAC”, the “relative integration efficiency (log2)” value in data set [1] is -0.435 ± 0.24; in data set [2] it was -0.0697 ± 0.03.
Take “ACATTTGTTGATACAACCATAAGTTGATATTTTCAACCATAAAGTGATATTTATCACAACCATAAAGTGATATTTACTCTGATCATAGTCAGACCAACATTGCTACGACCCGTATTCGCACCGACAC”: the “relative integration efficiency (log2)” value in data set [1] is -0.067 ± 0.078; in data set [2] it was 0.0778 ± 0.073.
“ACATTTGTTGATACAACCATAAGTTGATATTTTCAACCATAAAGTGATATTTATCACAACCATAAGTTGATATTTTCTCTGATCATAGTCAGACCAACATTGCTACGACCCGTATTCGCACCGACAC”: the “relative integration efficiency (log2)” value was -0.246 ± 0.14 in data set [1] and 0.119 ± 0.067 in data set [2].
The corresponding values for “ACATTTGTTGATACAACCATAAGTTGATATTTTCAACCATAAAGTGATATTTATCACAACCATATATTGATATCTCCTCTGATCATAGTCAGACCAACATTGCTACGACCCGTATTCGCACCGACAC” are -0.347 ± 0.053 and -0.136 ± 0.014.
The corresponding values for “ACATTTGTTGATACAACCATAAGTTGATATTTTCAACCATAAAGTGATATTTATCACACCCATAAATTGATAATTACTCTGATCATAGTCAGACCAACATTGCTACGACCCGTATTCGCACCGACAC” are -0.0467 ± 0.44 and -0.109 ± 0.07.
